Measurements as given in article PMC7138838, “Gating mechanism of elongating β-ketoacyl-ACP synthases” (Nature Communications, 2020).

B1: FabF (KASII family β-ketoacyl-ACP synthase), wild type (enzyme, E. coli)
chain: MSKRRVVVTGLGMLSPVGNTVESTWKALLAGQSGISLIDHFDTSAYATKFAGLVKDFNCEDIISRKEQRKMDAFIQYGIVAGVQAMQDSGLEITEENATRIGAAIGSGIGGLGLIEENHTSLMNGGPRKISPFFVPSTIVNMVAGHLTIMYGLRGPSISIATACTSGVHNIGHAARIIAYGDADVMVAGGAEKASTPLGVGGFGAARALSTRNDNPQAASRPWDKERDGFVLGDGAGMLVLEEYEHAKKRGAKIYAELVGFGMSSDAYHMTSPPENGAGAALAMANALRDAGIEASQIGYVNAHGTSTPAGDKAEAQAVKTIFGEAASRVLVSSTKSMTGHLLGAAGAVESIYSILALRDQAVPPTINLDNPDEGCDLDFVPHEARQVSGMEYTLCNSFGFGGTNGSLIFKKI
notes: FabF, elongating β-ketoacyl-ACP synthase (KASII family), E. coli; also called wt FabF; source: E. coli BL21, purified (Ni-NTA, thrombin cleavage, Superdex 200); not shown: His8, N-terminal, cleaved

Key:
[1] = target: the molecule itself; test: crystal structure; AcpP covalently crosslinked through its pantetheineamide probe (Ser36) to Cys163 of the KS (crypto-AcpP:KS 5:1, 37 °C, 16 h; SEC in 20 mM Tris, 50 mM NaCl, pH 7.4); hanging drop, 6 °C, PEG 8K, 0.1 M sodium cacodylate pH 6.5
[2] = target: FabF F400A (gate removal mutant) (E. coli); test: cross-linking; mechanism-based crosslinking, single time point: 40 μM crypto-AcpP, 20 μM FabF, 25 mM Tris, 150 mM NaCl, 10% glycerol, 0.5 mM TCEP, pH 7.4; SDS-PAGE densitometry; efficiency normalised to the average of wt FabF; n = 3
[3] = target: FabF G402A (loop flexibility-modulated mutant) (E. coli); test: as above
[4] = target: B1; test: as above; settings: both partners purified
[5] = target: FabF G310M (pocket-blockage mutant) (E. coli); test: as above
[6] = target: FabF D265A (loop 2 destabilization mutant) (E. coli); test: as above
[7] = target: FabF G310F (pocket-blockage mutant) (E. coli); test: as above
[8] = target: FabF D265N (loop 2 destabilization mutant) (E. coli); test: as above
[9] = target: B1; test: crystal structure; AcpP covalently crosslinked through its pantetheineamide probe (Ser36) to Cys163 of the KS (crypto-AcpP:KS 5:1, 37 °C, 16 h; SEC in 20 mM Tris, 50 mM NaCl, pH 7.4); hanging drop, 6 °C, PEG 8K, 0.1 M sodium cacodylate pH 6.5; settings: both partners purified

| binding result [4] | crosslinking efficiency normalised to wt FabF [5] | crosslinking efficiency normalised to wt FabF [6] | crosslinking efficiency normalised to wt FabF [7] | crosslinking efficiency normalised to wt FabF [8] | Binder | other results |
| --- | --- | --- | --- | --- | --- | --- |
| – | – | – | – | – | B1 | stoichiometry N [1]: 2 |
| binds | – | – | – | – | C8Cl-AcpP (natural protein, E. coli, Ser36 carries a 4'-phosphopantetheineamide arm with the C8 chloroacrylate (chlorovinyl) probe, acyl carrier protein AcpP, E. coli; also called C8Cl (2b); source: E. coli BL21 (DE3), purified; apofied with AcpH, loaded with the C8 chloroacrylate probe by the one-pot chemoenzymatic method, purified by SEC) MSTIEERVKKIIGEQLGVKQEEVTNNASFVEDLGADSLDTVELVMALEEEFDTEIPDEEAEKITTVQAAIDYINGHQA | crosslinking efficiency normalised to wt FabF [2]: 133%; crosslinking efficiency normalised to wt FabF [3]: 24% |
| binds | 70% | 72% | 73% | 77% | 1c-AcpP (C2αBr-AcpP) (natural protein, E. coli, Ser36 carries a 4'-phosphopantetheineamide arm with the C2 α-bromo probe 1c, acyl carrier protein AcpP, E. coli; also called C2αBr (1c); crypto-1c-ACP; source: E. coli BL21 (DE3), purified; apofied with AcpH, loaded with probe 1c by the one-pot chemoenzymatic method, purified by SEC) MSTIEERVKKIIGEQLGVKQEEVTNNASFVEDLGADSLDTVELVMALEEEFDTEIPDEEAEKITTVQAAIDYINGHQA | – |
| binds | 82% | 63% | 85% | 73% | C3Cl-AcpP (natural protein, E. coli, Ser36 carries a 4'-phosphopantetheineamide arm with the C3 chloroacrylate (chlorovinyl) probe, acyl carrier protein AcpP, E. coli; also called C3Cl (2a); source: E. coli BL21 (DE3), purified; apofied with AcpH, loaded with the C3 chloroacrylate probe by the one-pot chemoenzymatic method, purified by SEC) MSTIEERVKKIIGEQLGVKQEEVTNNASFVEDLGADSLDTVELVMALEEEFDTEIPDEEAEKITTVQAAIDYINGHQA | crosslinking efficiency normalised to wt FabF [3]: 87% |
| – | – | – | – | – | crypto-1b-AcpP (C16AcpP) (natural protein, E. coli, Ser36 carries a 4'-phosphopantetheineamide arm with the C16 α-bromo acyl probe 1b, acyl carrier protein AcpP, E. coli; Called 'native AcpP recombinant protein'; no tag is named; In the crosslinked complexes the α-carbon of the probe is bonded to Cys163 of the KS; source: E. coli BL21 (DE3), purified (isopropanol precipitation, HiTrap Q, Superdex 75); apofied with AcpH, loaded with probe 1b by the one-pot chemoenzymatic method, purified by SEC) MSTIEERVKKIIGEQLGVKQEEVTNNASFVEDLGADSLDTVELVMALEEEFDTEIPDEEAEKITTVQAAIDYINGHQA | binding result [9]: binds |
| – | 30% | 51% | 33% | 64% | crypto-1a-AcpP (C12AcpP) (natural protein, E. coli, Ser36 carries a 4'-phosphopantetheineamide arm with the C12 α-bromo acyl probe 1a, acyl carrier protein AcpP, E. coli; Called 'native AcpP recombinant protein'; no tag is named; In the crosslinked complexes the α-carbon of the probe is bonded to Cys163 of the KS; also called C12αBr-AcpP; C12αBr (1a); source: E. coli BL21 (DE3), purified (isopropanol precipitation, HiTrap Q, Superdex 75); apofied with AcpH, loaded with probe 1a by the one-pot chemoenzymatic method, purified by …) MSTIEERVKKIIGEQLGVKQEEVTNNASFVEDLGADSLDTVELVMALEEEFDTEIPDEEAEKITTVQAAIDYINGHQA | binding result [9]: binds |
| – | – | – | – | – | FabB (KASI family β-ketoacyl-ACP synthase), wild type (enzyme, E. coli, FabB, elongating β-ketoacyl-ACP synthase (KASI family), E. coli; source: E. coli BL21, purified (Ni-NTA, thrombin cleavage, Superdex 200); not shown: His8, N-terminal, cleaved) MKRAVITGLGIVSSIGNNQQEVLASLREGRSGITFSQELKDSGMRSHVWGNVKLDTTGLIDRKVVRFMSDASIYAFLSMEQAIADAGLSPEAYQNNPRVGLIAGSGGGSPRFQVFGADAMRGPRGLKAVGPYVVTKAMASGVSACLATPFKIHGVNYSISSACATSAHCIGNAVEQIQLGKQDIVFAGGGEELCWEMACEFDAMGALSTKYNDTPEKASRTYDAHRDGFVIAGGGGMVVVEELEHALARGAHIYAEIVGYGATSDGADMVAPSGEGAVRCMKMAMHGVDTPIDYLNSHGTSTPVGDVKELAAIREVFGDKSPAISATKAMTGHSLGAAGVQEAIYSLLMLEHGFIAPSINIEELDEQAAGLNIVTETTDRELTTVMSNSFGFGGTNATLVMRKLKD | stoichiometry N [1]: 2 |
